The test system of one series is hTERT-HMEC. The series can be described thus: percentage of EdU-negative (G0-arrested) nuclei per well, 72 h; higher = more G0 arrest. The following applies: reference: sequence is the full UniProt precursor, the tested protein was the secreted form or ectodomain.
In a further series the test system is MCF7. The series is described as above. The note with it: reference: sequence is the full UniProt precursor, the tested protein was the secreted form or ectodomain.
[1] abbreviates: protein concentration 0.0065 µM.
Setting [2] is: protein concentration 0.0225 µM.
The mark [3] stands for this setting: protein concentration 0.010965 µM.
Setting [4] is: protein concentration 0.10965 µM.
Where [5] appears, read: protein concentration 0.03125 µM.
Where [6] appears, read: protein concentration 0.3125 µM.

± gives the standard deviation of the averaged measurements.
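Note: secreted proteins added to cultured cells, EdU pulse at the end, nuclei found by Hoechst imaging, EdU status from nuclear versus surrounding ring intensity ratio, PBS as neutral control.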

“MARPVRGGLGAPRRSPCLLLLWLLLLRLEPVTAAAGPRAPCAAACTCAGDSLDCGGRGLAALPGDLPSWTRSLNLSYNKLSEIDPAGFEDLPNLQEVYLNNNELTAVPSLGAASSHVVSLFLQHNKIRSVEGSQLKAYLSLEVLDLSLNNITEVRNTCFPHGPPIKELNLAGNRIGTLELGAFDGLSRSLLTLRLSKNRITQLPVRAFKLPRLTQLDLNRNRIRLIEGLTFQGLNSLEVLKLQRNNISKLTDGAFWGLSKMHVLHLEYNSLVEVNSGSLYGLTALHQLHLSNNSIARIHRKGWSFCQKLHELVLSFNNLTRLDEESLAELSSLSVLRLSHNSISHIAEGAFKGLRSLRVLDLDHNEISGTIEDTSGAFSGLDSLSKLTLFGNKIKSVAKRAFSGLEGLEHLNLGGNAIRSVQFDAFVKMKNLKELHISSDSFLCDCQLKWLPPWLIGRMLQAFVTATCAHPESLKGQSIFSVPPESFVCDDFLKPQIITQPETTMAMVGKDIRFTCSAASSSSSPMTFAWKKDNEVLTNADMENFVHVHAQDGEVMEYTTILHLRQVTFGHEGRYQCVITNHFGSTYSHKARLTVNVLPSFTKTPHDITIRTTTMARLECAATGHPNPQIAWQKDGGTDFPAARERRMHVMPDDDVFFITDVKIDDAGVYSCTAQNSAGSISANATLTVLETPSLVVPLEDRVVSVGETVALQCKATGNPPPRITWFKGDRPLSLTERHHLTPDNQLLVVQNVVAEDAGRYTCEMSNTLGTERAHSQLSVLPAAGCRKDGTTVGIFTIAVVSSIVLTSLVWVCIIYQTRKKSEEYSVTNTDETVVPPDVPSYLSSQGTLSDRQETVVRTEGGPQANGHIESNGVCPRDASHFPEPDTHSVACRQPKLCAGSAYHKEPWKAMEKAEGTPGPHKMEHGGRVVCSDCNTEVDCYSRGQAFHPQPVSRDSAQPSAPNGPEPGGSDQEHSPHHQCSRTAAGSCPECQGSLYPSNHDRMLTAVKKKPMASLDGKGDSSWTLARLYHPDSTELQPASSLTSGSPERAEAQYLLVSNGHLPKACDASPESTPLTGQLPGKQRVPLLLAPKS [Q96JA1]”: the “percentage of EdU-negative” value with hTERT-HMEC (setting [1]) was 4.69 ± 0.4%; with hTERT-HMEC (protein concentration 0.065 µM) it was 8.75 ± 1.2%; in the series on MCF7 (setting [1]), 25.4 ± 1%; in the series on MCF7 (protein concentration 0.065 µM), 25.8 ± 3.1%.
Consider “MARRRRRACIALFLVLLFAFGTLMGLRTLKAPDGLPALGPGLELAPFERRPEGAPAPAARAPAAPAAPPPPPPPPRTADPGGSPGPAPAEAEPAPVQSLRVYSDLHAFYYSWYGSPRREGHYIHWDHVMVPHWDPKISASYPRGRHSPPDDLGSSFYPELGPYSSRDPEVLREHMTQLKEAAIGVLVLSWYPPGMADDNGEPSDDLVPAILDTAHQYSIQVAFHIQPYKGRDDITVHDNIKYIIDTYGSHGAFYRYKNSMGKSLPLFYIYDSYLTSPEAWAHLLTPNGPHSIRNTPYDGVFIALLVEEGHTHDILAAGFDGMYTYFASNGFSFGSSHQNWKAVKNFCDANNLMFIPSVGPGYIDTSIRPWNNHNTRNRVNGKYYETALQAALTVRPEIVSITSFNEWHEGTQIEKAIPKKTPTRLYLDYLPHQPSLYLELTRRWAEHFIKEKEQWLM [Q5VSG8]”, for which the “percentage of EdU-negative” value was determined as 4.99 ± 0.62% in the series on hTERT-HMEC (setting [2]), 9.23 ± 0.73% with hTERT-HMEC (protein concentration 0.225 µM), 25.6 ± 0.44% in the series on MCF7 (setting [2]) and 28.3 ± 2.4% in the series on MCF7 (protein concentration 0.225 µM).
As to “MARRSRHRLLLLLLRYLVVALGYHKAYGFSAPKDQQVVTAVEYQEAILACKTPKKTVSSRLEWKKLGRSVSFVYYQQTLQGDFKNRAEMIDFNIRIKNVTRSDAGKYRCEVSAPSEQGQNLEEDTVTLEVLVAPAVPSCEVPSSALSGTVVELRCQDKEGNPAPEYTWFKDGIRLLENPRLGSQSTNSSYTMNTKTGTLQFNTVSKLDTGEYSCEARNSVGYRRCPGKRMQVDDLNISGIIAAVVVVALVISVCGLGVCYAQRKGYFSKETSFQKSNSSSKATTMSENDFKHTKSFII”, the “percentage of EdU-negative” value in the series with hTERT-HMEC (setting [2]) is 5.13 ± 0.27%; with hTERT-HMEC (protein concentration 0.225 µM), 4.52 ± 0.093%; with MCF7 (setting [2]), 24.2 ± 0.62%; with MCF7 (protein concentration 0.225 µM), 25.4 ± 2.1%.
In the case of “MARSLVCLGVIILLSAFSGPGVRGGPMPKLADRKLCADQECSHPISMAVALQDYMAPDCRFLTIHRGQVVYVFSKLKGRGRLFWGGSVQGDYYGDLAARLGYFPSSIVREDQTLKPGKVDVKTDKWDFYCQ”, the “percentage of EdU-negative” value was found to be 5.39 ± 0.091% with hTERT-HMEC (setting [3]), 5.67 ± 0.4% in the series on hTERT-HMEC (setting [4]), 26.1 ± 1.1% in the series on MCF7 (setting [3]) and 26.2 ± 1.9% in the series on MCF7 (setting [4]).
For “MARSNLPLALGLALVAFCLLALPRDARARPQERMVGELRDLSPDDPQVQKAAQAAVASYNMGSNSIYYFRDTHIIKAQSQLVAGIKYFLTMEMGSTDCRKTRVTGDHVDLTTCPLAAGAQQEKLRCDFEVLVVPWQNSSQLLKHNCVQM”, the “percentage of EdU-negative” value in the series with hTERT-HMEC (setting [5]) is 5.74 ± 0.7%; in the series on hTERT-HMEC (setting [6]), 6.46 ± 0.57%; in the series with MCF7 (setting [5]) it was 26.7 ± 0.57%; in the series on MCF7 (setting [6]), 25.4 ± 1.2%.
Turning to “MARSPGRAYALLLLLICFNVGSGLHLQVLSTRNENKLLPKHPHLVRQKRAWITAPVALREGEDLSKKNPIAKIHSDLAEERGLKITYKYTGKGITEPPFGIFVFNKDTGELNVTSILDREETPFFLLTGYALDARGNNVEKPLELRIKVLDINDNEPVFTQDVFVGSVEELSAAHTLVMKINATDADEPNTLNSKISYRIVSLEPAYPPVFYLNKDTGEIYTTSVTLDREEHSSYTLTVEARDGNGEVTDKPVKQAQVQIRILDVNDNIPVVENKVLEGMVEENQVNVEVTRIKVFDADEIGSDNWLANFTFASGNEGGYFHIETDAQTNEGIVTLIKEVDYEEMKNLDFSVIVANKAAFHKSIRSKYKPTPIPIKVKVKNVKEGIHFKSSVISIYVSESMDRSSKGQIIGNFQAFDEDTGLPAHARYVKLEDRDNWISVDSVTSEIKLAKLPDFESRYVQNGTYTVKIVAISEDYPRKTITGTVLINVEDINDNCPTLIEPVQTICHDAEYVNVTAEDLDGHPNSGPFSFSVIDKPPGMAEKWKIARQESTSVLLQQSEKKLGRSEIQFLISDNQGFSCPEKQVLTLTVCECLHGSGCREAQHDSYVGLGPAAIALMILAFLLLLLVPLLLLMCHCGKGAKGFTPIPGTIEMLHPWNNEGAPPEDKVVPSFLPVDQGGSLVGRNGVGGMAKEATMKGSSSASIVKGQHEMSEMDGRWEEHRSLLSGRATQFTGATGAIMTTETTKTARATGASRDMAGAQAAAVALNEEFLRNYFTDKAASYTEEDENHTAKDCLLVYSQEETESLNASIGCCSFIEGELDDRFLDDLGLKFKTLAEVCLGQKIDINKEIEQRQKPATETSMNTASHSLCEQTMVNSENTYSSGSSFPVPKSLQEANAEKVTQEIVTERSVSSRQAQKVATPLPDPMASRNVIATETSYVTGSTMPPTTVILGPSQPQSLIVTERVYAPASTLVDQPYANEGTVVVTERVIQPHGGGSNPLEGTQHLQDVPYVMVRERESFLAPSSGVQPTLAMPNIAVGQNVTVTERVLAPASTLQSSYQIPTENSMTARNTTVSGAGVPGPLPDFGLEESGHSNSTITTSSTRVTKHSTVQHSYS [J3KSI6]”, the “percentage of EdU-negative” value with hTERT-HMEC (setting [2]) amounted to 4.92 ± 0.3%; with hTERT-HMEC (protein concentration 0.225 µM), 5.13 ± 0.22%; in the series on MCF7 (setting [2]), 25 ± 1.2%; in the series on MCF7 (protein concentration 0.225 µM), 26.57 ± 0.18%.
